Measured values reported in patent US20240400717A1, “Antibody Binding to CHI3L1 for Treating Cancer” (National Cheng Kung University, priority 2021, published 2024).

B1: R4-4: fully human anti-CHI3L1 IgG1 mAb, Table 1 No. 9; heavy chain SEQ ID NO: 9, light chain SEQ ID NO: 10 (antibody, listed as Homo sapiens)
VH: EVQLLESGGGLLQPGGSLRLSCAASGLTFRNYAMTWVRQAPGKGLEWVSTISGNGDETFYADSVKGHFTISRDNSKDTVYLQMNSLRAEDTAVYYCAKGGHYSFFDSWGQGSPVTVSS
light: NFMLTQPHSVSESPGKTVTISCTRSSGSIASNYVQWYQQRPGSSPTTVIYEDNQRPSGVPDRFSGSIDSSSNSASLTISGLKTEDEADYYCQSYDSSNYVFGTGTKVTVLGQPKANPTVTLFPPSSEELQANKATLVCLISDFYPGAVTVAWKADGSPVKAGVETTKPSKQSNNKYAASSYLSLTPEQWKSHRSYSCQVTHEGSTVEKTVAPAECS
B2: 293R3-4: fully human anti-CHI3L1 IgG1 mAb, Table 1 No. 4; heavy chain SEQ ID NO: 73, light chain SEQ ID NO: 74 (antibody, listed as Homo sapiens)
VH: EVQLVQSGAEVKKPGATVKISCKVSGYSFTDYYIHWVQQAPGKGLEWMGFVDPENGETIYAEKFQGRVTITADTSTDTAYMELSSLRSDDTAVYYCATDRDYDDSSGNAFDIWGQGTMVTVSS
light: SYELTQPPSVSVSTGQTATITCSGDILGDEYAFWYQQKAGQSPVLVIYLDTRRPSGIPERFSGSNSGDTATLTISETQPVDEAVYFCQGWDSSTALYVFGTGTKVTVLGQPKANPTVTLFPPSSEELQANKATLVCLISDFYPGAVTVAWKADGSPVKAGVETTKPSKQSNNKYAASSYLSLTPEQWKSHRSYSCQVTHEGSTVEKTVAPTECS
B3: 293R3-2: fully human anti-CHI3L1 IgG1 mAb, Table 1 No. 2; heavy chain SEQ ID NO: 65, light chain SEQ ID NO: 66 (antibody, listed as Homo sapiens)
VH: QVQLQESGPGLVEPSGTLSLTCAVSGGSISSSNWWSWVRQHPGKGLEWIGEIYHSGSTNYNPSLRSRVTISVDKSKNQFSLELSSVTAADTAVYYCAGDQRMEDDAFDIWGQGTMVTVSS
light: QSALTQPASVSGSPGQSITISCTGTSSDVGGYNYVSWYQQHPGKAPKLMIYDVSNRPSGVSNRFSGSKSGNTASLTISGLQAEDEADYYCSSYTSSSTLYVFGTGTKVTVLGQPKANPTVTLFPPSSEELQANKATLVCLISDFYPGAVTVAWKADGSPVKAGVETTKPSKQSNNKYAASSYLSLTPEQWKSHRSYSCQVTHEGSTVEKTVAPTECS
B4: R4-54: fully human anti-CHI3L1 IgG1 mAb, Table 1 No. 34; heavy chain SEQ ID NO: 33, light chain SEQ ID NO: 34 (antibody, listed as Homo sapiens)
VH: QVQLVESGGGVVQPGRSLRLSCAASGFTFSSYGMHWVRQAPGKGLEWVAVISYDGSDKDYADSVKGRFTISRDNSKNTLFLQMNSLRAEDTAVYYCARDDYDSTYYFDNWGQGTTVTVSS
light: SYELTQPPSVSVSPGQTASITCSGDILADQYASWYQQKPGQSPVLVIYHDTKRPSGVPERFSGSTSGNTATLTISGTQAMDEAAYYCQAWDINTAWVFGGGTQLTVLGQPKAAPSVTLFPPSSEELQANKATLVCLISDFYPGAVTVAWKADSSPVKAGVETTTPSKQSNNKYAASSYLSLTPEQWKSHRSYSCQVTHEGSTVEKTVAPTECS

Each molecule was assayed against T1, hCHI3L1/flag-His (Homo sapiens, UniProt P36222) (assay: ForteBio biolayer interferometry binding analysis). Settings: not given.
T1 construct: human CHI3L1 extracellular domain fused with flag and His tag
T1 sequence (P36222 22-383): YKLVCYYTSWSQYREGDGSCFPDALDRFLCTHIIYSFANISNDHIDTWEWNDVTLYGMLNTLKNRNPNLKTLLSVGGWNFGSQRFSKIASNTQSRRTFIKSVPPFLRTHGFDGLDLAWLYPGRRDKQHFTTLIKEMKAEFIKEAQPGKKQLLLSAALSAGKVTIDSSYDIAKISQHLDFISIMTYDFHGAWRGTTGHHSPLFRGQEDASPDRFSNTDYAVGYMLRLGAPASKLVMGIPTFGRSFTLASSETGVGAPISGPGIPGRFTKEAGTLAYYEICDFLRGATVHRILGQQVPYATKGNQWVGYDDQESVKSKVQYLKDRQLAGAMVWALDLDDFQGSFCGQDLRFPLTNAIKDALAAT
Experimental: Anti-CHI3L1 mAbs were loaded at 5 μg/mL on AHC (Anti-Human IgG Fc Capture, ForteBio, Cat #18-5060) for signal reach to approximate 0.5 nm. Sensors then were exposed to human CHI3L1 extracellular domain fused with flag and His tag recombinant protein, hCHI3L1/flag-His, solutions at 10 nM with 2 time serial dilution for 7 concentrations. Measurement were performed as follows: 1 min baseline in kinetic buffer, 5 minute association in 7 different concentrations hCHI3L1/flag-His and 5 minute dissociation into kinetic buffer. The kinetic parameters were calculated and produced by Octet Data Acquisition and Analysis Software.

| Molecule | binding kinetics profile compare to other mAbs |
| --- | --- |
| B1 | slower on-rate (kon) and off-rate (koff) |

Same assay, conditions: mAb loaded on AHC sensor, analyte hCHI3L1

| Molecule | koff | kon |
| --- | --- | --- |
| B2 | 0.00722 s⁻¹ | 1.83e+06 M⁻¹ s⁻¹ |
| B3 | 0.00302 s⁻¹ | 1.08e+06 M⁻¹ s⁻¹ |
| B1 | 0.000353 s⁻¹ | – |
| B4 | 0.0065 s⁻¹ | 1.54e+06 M⁻¹ s⁻¹ |

These molecules were tested against T2, CHI3L1 binding to IL-13Rα2 on A549 cell line (Homo sapiens, UniProt P36222) (assay: Functional screen: block of CHI3L1 binding to IL-13Rα2 on A549 cell line). Settings: A549 cells, compared with CHI3L1 only.
T2 construct: host or cells: A549 cells carry the receptor
T2 sequence (P36222 22-383): as above
Format: cell-based
Source text: CHI3L1 is known to associate with different receptors, such as IL-13Rα2 (He et al. 2013), CRTH2 (Zhou et al. 2015), TMEM219 (Lee et al. 2016), and galectin-3 (Zhou et al. 2015). […] Therefore, purified antibody leads were functionally screened for their ability to block CHI3L1 binding to IL-13Rα2 on A549 cell line (FIG. 3A). […] The sequences and defied CDR regions among those monoclonal antibodies are listed and summarized in the sequences list (SEQ ID NOs: 1 to 88) and Table 2, respectively. Anti-CHI3L1 clone R4-2 heavy chain (SEQ ID NO: 1), anti-CHI3L1 clone R4-2 light chain (SEQ ID NO: 2), anti-CHI3L1 clone R4-4 heavy chain (SEQ ID NO: 9), anti-CHI3L1 clone R4-4 light chain (SEQ ID NO: 10), anti-CHI3L1 clone R4-39 heavy chain (SEQ ID NO: 17), anti-CHI3L1 clone R4-39 light chain (SEQ ID NO: 18), anti-CHI3L1 clone R4-53 heavy chain (SEQ ID NO: 25), anti-CHI3L1 clone R4-53 light chain (SEQ ID NO: 26), anti-CHI3L1 clone R4-54 heavy chain (SEQ ID NO: 33), anti-CHI3L1 clone R4-54 light chain (SEQ ID NO: 34), anti-CHI3L1 clone R4-62 heavy chain (SEQ ID NO: 41), anti-CHI3L1 clone R4-62 light chain (SEQ ID NO: 42), anti-CHI3L1 clone R4-63 heavy chain (SEQ ID NO: 49), anti-CHI3L1 clone R4-63 light chain (SEQ ID NO: 50), anti-CHI3L1 clone R4-93 heavy chain (SEQ ID NO: 57), anti-CHI3L1 clone R4-93 light chain (SEQ ID NO: 58), anti-CHI3L1 clone 293R3-2 heavy chain (SEQ ID NO: 65), anti-CHI3L1 clone 293R3-2 light chain (SEQ ID NO: 66), anti-CHI3L1 clone 293R3-4 heavy chain (SEQ ID NO: 73), anti-CHI3L1 clone 293R3-4 light chain (SEQ ID NO: 74), anti-CHI3L1 clone 293R3-5 heavy chain (SEQ ID NO: 81), and anti-CHI3L1 clone 293R3-5 light chain (SEQ ID NO: 82) are shown in sequence listing.

| Molecule | CHI3L1 neutralizing activity |
| --- | --- |
| B2 | best neutralizing activity |
| B3 | best neutralizing activity |
| B4 | best neutralizing activity |

The molecules below were run on SW480 and SW620 cells (assay: rCHI3L1-induced foci formation). Settings: not given.
Format: cell-based, human

| Molecule | number of foci |
| --- | --- |
| B2 | decreased in a dose-dependent manner |
| B3 | decreased in a dose-dependent manner |
| B1 | decreased in a dose-dependent manner |
| B4 | decreased in a dose-dependent manner |

These molecules were tested against human chitotriosidase-1 (CHIT1) (Homo sapiens, UniProt Q13231) (assay: ELISA binding specificity, CHIT1). Settings: mAbs 1 μg/ml; coated protein 2.5 μg/ml to 0 μg/ml.
Chain of human chitotriosidase-1 (CHIT1) (Q13231 22-466): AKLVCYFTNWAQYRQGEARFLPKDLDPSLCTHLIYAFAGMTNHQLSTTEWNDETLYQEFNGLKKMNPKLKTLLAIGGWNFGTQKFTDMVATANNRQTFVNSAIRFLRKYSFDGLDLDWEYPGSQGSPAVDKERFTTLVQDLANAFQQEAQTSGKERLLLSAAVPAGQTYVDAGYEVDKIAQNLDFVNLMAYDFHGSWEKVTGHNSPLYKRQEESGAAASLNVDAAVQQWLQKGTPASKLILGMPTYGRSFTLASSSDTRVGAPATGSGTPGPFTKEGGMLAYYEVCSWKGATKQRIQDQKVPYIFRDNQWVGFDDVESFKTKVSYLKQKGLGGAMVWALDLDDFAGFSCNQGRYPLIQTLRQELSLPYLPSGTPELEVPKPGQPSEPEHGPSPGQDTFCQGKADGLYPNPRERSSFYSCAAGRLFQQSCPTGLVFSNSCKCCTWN
Experimental: (§1) Four selected clones of mAbs including R4-4, R4-54, 293R3-2, and 293R3-4 were further tested for blocking effect on human colorectal (HCT116, SW480, and SW620) and pancreatic cancer cell lines (PANC1 and MiaPaCa-2). […] P values were determined by one-way ANOVA. * P<0.05, ** P<0.01, *** P<0.001, **** P<0.0001. For binding specificity examination, we further coated different concentration of recombinant CHI3L1 protein, and two other major proteins in chitinase family including human chitotriosidase-1 (CHIT1) and CHI3L2 from 2.5 μg/ml to 0 μg/ml, on 96-well plate.

| Molecule | binding specificity: recognition of CHIT1 |
| --- | --- |
| B2 | no other chitinase proteins |
| B3 | no other chitinase proteins |
| B1 | no other chitinase proteins |
| B4 | no other chitinase proteins |

Each molecule was assayed against T3, CHI3L2 (Homo sapiens, UniProt Q15782) (assay: ELISA binding specificity, CHI3L2). Settings: mAbs 1 μg/ml; coated protein 2.5 μg/ml to 0 μg/ml.
T3 sequence (Q15782 27-390): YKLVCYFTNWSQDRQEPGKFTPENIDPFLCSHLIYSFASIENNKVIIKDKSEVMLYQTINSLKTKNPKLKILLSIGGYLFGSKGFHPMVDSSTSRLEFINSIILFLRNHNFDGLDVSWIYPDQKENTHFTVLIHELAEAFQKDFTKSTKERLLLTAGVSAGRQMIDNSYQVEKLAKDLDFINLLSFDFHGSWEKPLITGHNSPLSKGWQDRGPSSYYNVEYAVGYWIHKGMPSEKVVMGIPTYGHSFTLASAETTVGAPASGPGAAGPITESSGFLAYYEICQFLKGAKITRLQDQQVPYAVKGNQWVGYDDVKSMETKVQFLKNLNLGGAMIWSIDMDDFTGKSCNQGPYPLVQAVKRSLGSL
Experimental: as §1

| Molecule | binding specificity: recognition of CHI3L2 |
| --- | --- |
| B2 | no other chitinase proteins |
| B3 | no other chitinase proteins |
| B1 | no other chitinase proteins |
| B4 | no other chitinase proteins |

These molecules were tested on PANC1 and H460 cells (assay: CCK-8 cell viability assay with rCHI3L1). Settings: PANC1 and H460, rCHI3L1 with mAbs at two doses.
Format: cell-based, human
Experimental: PI3K/AKT/mTOR signaling pathway is important in regulating cell proliferation, survival and migration (Xu et al. 2020). Therefore, we investigated the effect of four selected mAbs on cancer cell behaviors. Human pancreatic (PANC1) and large cell cancer of the lung (H460) cells were treated with rCHI3L1 only or together with mAbs at two doses, and then subjected to cell counting kit 8 (CCK-8) cell viability assay. […] P values were determined by one-way ANOVA. * P<0.05, ** P<0.01, *** P<0.001, **** P<0.0001.

| Molecule | cell viability (CCK-8) |
| --- | --- |
| B2 | reduced the viability |
| B3 | reduced the viability |
| B1 | reduced the viability |
| B4 | reduced the viability |
